Reference: patent US20220411483A1 (Chugai, published 2022)
Positions count from the first letter of the chain named.

T1: FcγRIIb extracellular domain, His tag (human, UniProt P31994 43-217)
T1 construct: extracellular domain; also called FcgRIIb
T1 sequence (looked up): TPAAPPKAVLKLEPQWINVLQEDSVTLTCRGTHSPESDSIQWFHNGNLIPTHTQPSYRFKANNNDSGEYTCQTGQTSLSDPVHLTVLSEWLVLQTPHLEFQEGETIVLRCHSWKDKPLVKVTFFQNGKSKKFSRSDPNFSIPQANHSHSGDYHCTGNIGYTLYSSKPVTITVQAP

T2: FcγRIIa R type extracellular domain, His tag (human, UniProt P12318 34-217)
T2 construct: extracellular domain; also called FcgRIIaR
T2 sequence (looked up): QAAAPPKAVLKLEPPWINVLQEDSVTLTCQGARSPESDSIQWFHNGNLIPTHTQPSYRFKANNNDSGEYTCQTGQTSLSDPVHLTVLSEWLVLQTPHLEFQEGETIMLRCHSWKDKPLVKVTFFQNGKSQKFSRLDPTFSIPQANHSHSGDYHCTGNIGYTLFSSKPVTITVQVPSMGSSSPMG

T3: FcγRIIa H type extracellular domain, His tag (human, UniProt P12318 34-217)
T3 construct: extracellular domain; also called FcgRIIaH
T3 sequence (looked up): T2 sequence (looked up) with R134H

B1: IL6R-P734/IL6R-L (antibody, human IgG1, kappa)
heavy: QVQLQESGPGLVKPSETLSLTCAVSGHSISHDHAWSWVRQPPGEGLEWIGFISYSGITNYNPSLQGRVTISRDNSKNTLYLQMNSLRAEDTAVYYCARSLARTTAMDYWGEGTLVTVSSASTKGPSVFPLAPSSKSTSGGTAALGCLVKDYFPEPVTVSWNSGALTSGVHTFPAVLQSSGLYSLSSVVTVPSSSLGTQTYICNVNHKPSNTKVDKKVEPKSCDKTHTCPPCPAPELFGQDSVMLFPPKPKDTLMISRTPEVTCVVVDVSHEDPEVKFNWYVDGVEVHNAKTKPREEQENSTYRVVSVLTVLHQDWLNGKEYKCKVHNKALPHPIEKTISKAKGQPREPQVYTLPPSRDELTKNQVSLTCLVKGFYPSDIAVEWESNGQPENNYKTTPPVLDSDGSFFLYSKLTVDKSRWQQGNVFSCSVMHEALHNHYTQKSLSLSP
light: not shown
B2: IL6R-P658/IL6R-L (antibody, human IgG1, kappa)
heavy: B1 heavy with Q239G, H326S, H332A
light: not shown
B3: IL6R-P727/IL6R-L (antibody, human IgG1, kappa)
heavy: B1 heavy with F237L, H270P, H326S
light: not shown
B4: IL6R-P729/IL6R-L (antibody, human IgG1, kappa)
heavy: B1 heavy with H270P, H326S, H332A
light: not shown
B5: IL6R-P690/IL6R-L (antibody, human IgG1, kappa)
heavy: B1 heavy with F237L, H326S
light: not shown
B6: IL6R-P689/IL6R-L (antibody, human IgG1, kappa)
heavy: B1 heavy with F237L, Q239G, H270P, H332A
light: not shown
B7: IL6R-P728/IL6R-L (antibody, human IgG1, kappa)
heavy: B1 heavy with H332A
light: not shown
B8: IL6R-P735/IL6R-L (antibody, human IgG1, kappa)
heavy: B1 heavy with H270P, H326S
light: not shown
B9: IL6R-P726/IL6R-L (antibody, human IgG1, kappa)
heavy: B1 heavy with F237L
light: not shown
B10: IL6R-P732/IL6R-L (antibody, human IgG1, kappa)
heavy: B1 heavy with Q239G, H270P, H332A
light: not shown

The binders below were run against T1, FcγRIIb extracellular domain, His tag (assay: SPR, bound amount per captured antibody).

First: B1
Second: B2
The “Relative FcgRIIb-binding Activity” value of the first is higher: 169 % of IL6R-G1d/IL6R-L for the first, 149 % of IL6R-G1d/IL6R-L for the second.

Compared with B3, B4 is higher in “Relative FcgRIIb-binding Activity” value: 108 % of IL6R-G1d/IL6R-L for the first, 127 % of IL6R-G1d/IL6R-L for the second.

Going from B5 to B6, the “Relative FcgRIIb-binding Activity” value rises from 102 % of IL6R-G1d/IL6R-L to 103 % of IL6R-G1d/IL6R-L.

Compared with B7, B8 is higher in “Relative FcgRIIb-binding Activity” value: 126 % of IL6R-G1d/IL6R-L for the first, 173 % of IL6R-G1d/IL6R-L for the second.

Compared with B9, B10 is higher in “Relative FcgRIIb-binding Activity” value: 123 % of IL6R-G1d/IL6R-L for the first, 165 % of IL6R-G1d/IL6R-L for the second.

What follows are binders tested against T2, FcγRIIa R type extracellular domain, … (assay: SPR, bound amount per captured antibody).

First: B1
Second: B2
The “Relative FcgRIIaR-binding Activity” value of the first is lower: 12.5 % of IL6R-G1d/IL6R-L for the first, 20.8 % of IL6R-G1d/IL6R-L for the second.

First: B3
Second: B4
The “Relative FcgRIIaR-binding Activity” value of the first is lower: 8.3 % of IL6R-G1d/IL6R-L for the first, 10 % of IL6R-G1d/IL6R-L for the second.

First: B5
Second: B6
The “Relative FcgRIIaR-binding Activity” value of the first is higher: 10.5 % of IL6R-G1d/IL6R-L for the first, 10.1 % of IL6R-G1d/IL6R-L for the second.

First: B7
Second: B8
The “Relative FcgRIIaR-binding Activity” value of the first is lower: 11 % of IL6R-G1d/IL6R-L for the first, 14.3 % of IL6R-G1d/IL6R-L for the second.

Compared with B9, B10 is lower in “Relative FcgRIIaR-binding Activity” value: 12 % of IL6R-G1d/IL6R-L for the first, 11.9 % of IL6R-G1d/IL6R-L for the second.

The binders below were run against T4, FcγRIa extracellular domain, His tag (human, UniProt P12314 16-292) (assay: SPR, KD ratio).
T4 construct: whole entry named; also called FcgRIa
T4 sequence (P12314 16-292): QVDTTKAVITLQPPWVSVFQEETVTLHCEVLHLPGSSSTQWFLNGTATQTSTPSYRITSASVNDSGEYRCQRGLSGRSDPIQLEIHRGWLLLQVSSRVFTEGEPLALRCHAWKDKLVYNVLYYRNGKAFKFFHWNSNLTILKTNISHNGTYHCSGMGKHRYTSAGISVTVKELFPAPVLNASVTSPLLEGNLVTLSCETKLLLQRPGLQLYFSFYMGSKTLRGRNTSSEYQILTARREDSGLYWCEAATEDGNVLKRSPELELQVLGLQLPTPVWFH

Compared with B1, B2 is lower in “Relative FcgRIa-binding Activity” value: 0.0015 fold of IL6R-G1d/IL6R-L for the first, 0.0004 fold of IL6R-G1d/IL6R-L for the second.

First: B3
Second: B4
The “Relative FcgRIa-binding Activity” value of the first is higher: 0.0014 fold of IL6R-G1d/IL6R-L for the first, 0.0005 fold of IL6R-G1d/IL6R-L for the second.

Going from B5 to B6, the “Relative FcgRIa-binding Activity” value rises from 0.0011 fold of IL6R-G1d/IL6R-L to 0.0118 fold of IL6R-G1d/IL6R-L.

Compared with B7, B8 is higher in “Relative FcgRIa-binding Activity” value: 0.0006 fold of IL6R-G1d/IL6R-L for the first, 0.0013 fold of IL6R-G1d/IL6R-L for the second.

Compared with B9, B10 is lower in “Relative FcgRIa-binding Activity” value: 0.0017 fold of IL6R-G1d/IL6R-L for the first, 0.0005 fold of IL6R-G1d/IL6R-L for the second.

These binders were tested against T1, FcγRIIb extracellular domain, His tag (assay: SPR, KD ratio).

First: B1
Second: B2
The “Relative FcgRIIb-binding Activity” value of the first is lower: 2.07 fold of IL6R-G1d/IL6R-L for the first, 3.81 fold of IL6R-G1d/IL6R-L for the second.

First: B3
Second: B4
The “Relative FcgRIIb-binding Activity” value of the first is lower: 1.06 fold of IL6R-G1d/IL6R-L for the first, 1.17 fold of IL6R-G1d/IL6R-L for the second.

First: B5
Second: B6
The “Relative FcgRIIb-binding Activity” value of the first is higher: 1.28 fold of IL6R-G1d/IL6R-L for the first, 1.09 fold of IL6R-G1d/IL6R-L for the second.

First: B7
Second: B8
The “Relative FcgRIIb-binding Activity” value of the first is lower: 1.31 fold of IL6R-G1d/IL6R-L for the first, 2.26 fold of IL6R-G1d/IL6R-L for the second.

Compared with B9, B10 is higher in “Relative FcgRIIb-binding Activity” value: 1.25 fold of IL6R-G1d/IL6R-L for the first, 1.75 fold of IL6R-G1d/IL6R-L for the second.

Each binder was assayed against T3, FcγRIIa H type extracellular domain, … (assay: SPR, KD ratio).

First: B1
Second: B2
The “Relative FcgRIIaH-binding Activity” value of the first is higher: 0.011 fold of IL6R-G1d/IL6R-L for the first, 0.01 fold of IL6R-G1d/IL6R-L for the second.

First: B3
Second: B4
The “Relative FcgRIIaH-binding Activity” value of the first is higher: 0.007 fold of IL6R-G1d/IL6R-L for the first, 0.005 fold of IL6R-G1d/IL6R-L for the second.

Compared with B5, B6 is higher in “Relative FcgRIIaH-binding Activity” value: 0.007 fold of IL6R-G1d/IL6R-L for the first, 0.008 fold of IL6R-G1d/IL6R-L for the second.

First: B7
Second: B8
The “Relative FcgRIIaH-binding Activity” value of the first is higher: 0.012 fold of IL6R-G1d/IL6R-L for the first, 0.007 fold of IL6R-G1d/IL6R-L for the second.

Compared with B9, B10 is lower in “Relative FcgRIIaH-binding Activity” value: 0.016 fold of IL6R-G1d/IL6R-L for the first, 0.01 fold of IL6R-G1d/IL6R-L for the second.

What follows are binders tested against T2, FcγRIIa R type extracellular domain, … (assay: SPR, KD ratio).

Compared with B1, B2 is higher in “Relative FcgRIIaR-binding Activity” value: 0.018 fold of IL6R-G1d/IL6R-L for the first, 0.038 fold of IL6R-G1d/IL6R-L for the second.

Going from B3 to B4, the “Relative FcgRIIaR-binding Activity” value rises from 0.012 fold of IL6R-G1d/IL6R-L to 0.015 fold of IL6R-G1d/IL6R-L.

Going from B5 to B6, the “Relative FcgRIIaR-binding Activity” value falls from 0.017 fold of IL6R-G1d/IL6R-L to 0.016 fold of IL6R-G1d/IL6R-L.

Compared with B7, B8 is higher in “Relative FcgRIIaR-binding Activity” value: 0.017 fold of IL6R-G1d/IL6R-L for the first, 0.021 fold of IL6R-G1d/IL6R-L for the second.

First: B9
Second: B10
The “Relative FcgRIIaR-binding Activity” value of the first is higher: 0.019 fold of IL6R-G1d/IL6R-L for the first, 0.017 fold of IL6R-G1d/IL6R-L for the second.

Each binder was assayed against T5, FcγRIIIa V type extracellular domain, His tag (human, UniProt P08637 17-208) (assay: SPR, KD ratio).
T5 construct: extracellular domain; also called FcgRIIIaV
T5 sequence (P08637 17-208 F176V): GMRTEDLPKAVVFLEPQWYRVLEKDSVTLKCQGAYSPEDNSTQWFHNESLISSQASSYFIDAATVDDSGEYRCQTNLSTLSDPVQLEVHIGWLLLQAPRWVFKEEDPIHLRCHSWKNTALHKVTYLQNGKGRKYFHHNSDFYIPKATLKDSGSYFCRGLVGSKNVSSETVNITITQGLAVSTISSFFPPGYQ

First: B1
Second: B2
The “Relative FcgRIIIaV-binding Activity” value of the first is lower: 0.003 fold of IL6R-G1d/IL6R-L for the first, 0.005 fold of IL6R-G1d/IL6R-L for the second.

Going from B3 to B4, the “Relative FcgRIIIaV-binding Activity” value rises from 0.005 fold of IL6R-G1d/IL6R-L to 0.006 fold of IL6R-G1d/IL6R-L.

Compared with B5, B6 is higher in “Relative FcgRIIIaV-binding Activity” value: 0.005 fold of IL6R-G1d/IL6R-L for the first, 0.007 fold of IL6R-G1d/IL6R-L for the second.

Going from B7 to B8, the “Relative FcgRIIIaV-binding Activity” value falls from 0.007 fold of IL6R-G1d/IL6R-L to 0.005 fold of IL6R-G1d/IL6R-L.

Going from B9 to B10, the “Relative FcgRIIIaV-binding Activity” value falls from 0.009 fold of IL6R-G1d/IL6R-L to 0.004 fold of IL6R-G1d/IL6R-L.
